Measured values from patent US11124558B2, “Use of tetranectin and peptide agonists to treat inflammatory diseases” (The Feinstein Institutes for Medical Research, priority 2017, dated 2021).
Entries after “also recorded” stand apart in the source; their conditions may differ. Non-standard residues stand in square brackets, D forms with d. No end group written: not given here. Nle = CCCC[C@H](N)C(=O)O

B1: P12: Recombinant N-terminal deletion mutant of TN, residue 45-181, carbohydrate recognition domain (CRD), expressed in E. coli, SEQ ID NO:12 (protein, listed as Homo sapiens)
chain: ALQTVCLKGTKVHMKCFLAFTQTKTFHEASEDCISRGGTLGTPQTGSENDALYEYLRQSVGNEAEIWLGLNDMAAEGTWVDMTGARIAYKNWETEITAQPDGGKTENCAVLSGAANGKWFDKRCRDQLPYICQFGIV

How the values were obtained:
[1] = system: lethal sepsis (CLP), Balb/C mice; test: Lethal sepsis by cecal ligation and puncture (CLP), survival in mice; type: in vivo; details: male Balb/C mice, given intraperitoneally, survival monitored more than two weeks
Method: FIG. 6A-6C: Recombinant TN protected mice against lethal endotoxemia and sepsis. Male Balb/C mice were subjected to lethal endotoxemia (LPS, 5 mg/kg, i.p., Panel A) or sepsis by cecal ligation and puncture (CLP, Panel B, C), and recombinant TN produced in HEK293 (Panel A, B) or E. coli (Panel C) was given intraperitoneally at indicated dosing regimens. Animal survival rates were monitored for more than two weeks to ensure no later death. Shown in Panel B and C is a summary of two independent experiments with similar results.
(§1) FIG. 9: N-terminal deletion TN mutant protected mice against lethal sepsis. Male Balb/C mice were subjected to lethal sepsis by cecal ligation and puncture (CLP), and recombinant deletion mutant (ΔTN) was given intrapeitoneally at indicated dosing regimens. Animal survival rates were monitored for more than two weeks to ensure no later death. Shown was a summary of two independent experiments with similar results.
as §1, with “10:” for “9: N-terminal deletion”, “peptide agonist (P11)” for “mutant”, “TN peptide agonist, (P11, […]) (SEQ ID NO:11)” for “recombinant deletion mutant (ΔTN)”, “N=8-18 animals per group.” for “similar results.”
FIG. 13A-13B: Tetranectin peptide agonists (P2 and P2-M/Nle) protected mice against lethal sepsis. Male Balb/C mice were subjected to lethal sepsis by cecal ligation and puncture (CLP), and TN peptide agonist, P2 (55-KVHMKCFLAFTQTKTF-70) (13A) (SEQ ID NO:2) or P2-M/Nle (54-TKVH(Nle)KSFLAFTQTKT-69) (13B) (SEQ ID NO:13) was given intraperitoneally at indicated dosing regimens. Animal survival rates were monitored for more than two weeks to ensure no later death. Shown was a summary of independent experiment with N=10 animals per group. The Kaplan-Meier method was used to compare the difference in mortality rates between groups. *, P<0.05 versus “CLP+Vehicle” group.
Effects of TN or peptide agonist on LSI. Balb/C mice (both male and female, 7-8 weeks, 20-25 g) are subjected to lethal endotoxemia or sepsis as described above, and the recombinant TN is injected (i.p.) at various doses and time points (2, 24, and 48 h) after the onset of endotoxemia or sepsis. Their effects on the outcomes of LSI is assessed by comparing the long-term (two-week) survival rates between the TN-treated groups with saline vehicle-treated controls. By varying the time points (e.g., 2, 12, 24 or 36 h) when the first dose of TN will be given to animals, the therapeutic windows for the TN-based therapy is estimated. […] It will be critical to continue these exciting experiments using other dosing regimens to further validate TN's protective role in LSI.
To explore the therapeutic potential of the TN-based strategies, the efficacy of TN-specific peptide agonists that would recapitulate the HMGB1-inhibiting capacities is tested using both animal models of lethal endotoxemia and sepsis. A series of peptide agonists have been designed, and chemically synthesized or biologically expressed as recombinant peptide (Table 1, FIG. 7). Peptide agonists will be given to the endotoxemic or septic mice intraperitoneally at various doses and time points after the onset of endotoxemia or sepsis. Their effects on the outcomes of LSI is assessed by comparing the long-term (two-week) survival rates between the peptide agonist groups and the saline vehicle-treated controls.
TN-specific peptide agonists are tested that would recapitulate the HMGB1-inhibiting capacities using both animal models of lethal endotoxemia and sepsis. Peptide agonists are given to the endotoxemic or septic mice intraperitoneally at various doses and time points after the onset of endotoxemia or sepsis. […]

[2] = system: GRO/CXCL1 and ENA-78/CXCL5 secretion, HuPBMCs; test: Cytokine/chemokine secretion by HuPBMCs (Cytokine Antibody Arrays); type: cell-based; details: primary human monocytes / HuPBMCs, TN 20 μg/ml, 16 h
Method: Human blood was purchased from the Long Island Blood Bank, and HuPBMCs were isolated by density gradient centrifugation through Ficoll, and stimulated with recombinant TN (20 μg/ml) expressed in HEK293 or E. coli for 16 h. The extracellular levels of cytokines and chemokines were determined by Cytokine Antibody Arrays.
In light of the protective roles of these neutrophil-attracting chemokines, CXCL1/KC [67,68] and CXCL5/ENA-78 [69,70] in LSI, it is important to determine whether TN could modulate leukocyte infiltration to facilitate potential pathogen elimination during sepsis.

[3] = system: HMGB1 release; test: LPS/SAA-induced HMGB1 release, summary statement (cells not specified); type: cell-based
[4] = system: HMGB1 release, murine macrophage-like RAW264.7 cells; test: SAA-induced HMGB1 release in RAW264.7 cells (Western blotting); type: cell-based; details: 16 h, serum-free OPTI-MEM I
Method: Murine macrophage-like RAW264.7 cells were cultured in serum-free OPTI-MEM I medium, and stimulated with SAA in the absence of presence of ΔTN (residue 45-181) for 16 h at the indicated concentrations. The extracellular HMGB1 levels were determined by Western blotting, and expressed as % of stimulation in the presence of SAA alone.

Molecule | protection against lethal sepsis (animal survival) [1] | protection against lethal sepsis (animal survival) ([1]; listed as synthetic peptide corresponding to the plasminogen-binding region (residue 143-1)) | release of neutrophil-attracting chemokines (CXCL1/GRO-α/KC and CXCL5/ENA-78) [2] | attenuation of LPS/SAA-induced HMGB1 release [3] | inhibition of SAA-induced HMGB1 release [4] | inhibition of SAA-induced HMGB1 release ([4]; listed as ΔTN) | protection against lethal sepsis (animal survival) ([1]; listed as N-terminal deletion mutant of TN) | protection against lethal sepsis (animal survival) ([1]; listed as ΔTN)
KVHMKCFLAFTQTKTF (listed as Homo sapiens) [Peptide P2] | protected |  |  |  |  |  |  | 
QPDGGKTENCAVLSGAANGKWFDKRCRD (listed as Homo sapiens) [Peptide P11] | protected; also recorded: significant protection | dose-dependent and significant protection | specifically stimulated | dose-dependently attenuated |  |  |  | 
TKVH(Nle)KSFLAFTQTKT (TKVH[Nle]KSFLAFTQTKT) [P2-M/Nle] | protected |  |  |  |  |  |  | 
B1 | significant protection |  | specifically stimulated | dose-dependently attenuated | dose-dependently attenuated | dose-dependently inhibited | significant protection | protected
